Measurements taken from patent US11623951B2, “Antibodies to R-spondin 3” (National Health Research Institutes, priority 2017, dated 2023).
Values joined by “and” are separate entries in the source; they are usually repeats but may differ in a detail not shown here. Equal values may be shown once.

T1: RSPO3 (Homo sapiens, UniProt Q9BXY4)
T1 sequence (Q9BXY4 22-272): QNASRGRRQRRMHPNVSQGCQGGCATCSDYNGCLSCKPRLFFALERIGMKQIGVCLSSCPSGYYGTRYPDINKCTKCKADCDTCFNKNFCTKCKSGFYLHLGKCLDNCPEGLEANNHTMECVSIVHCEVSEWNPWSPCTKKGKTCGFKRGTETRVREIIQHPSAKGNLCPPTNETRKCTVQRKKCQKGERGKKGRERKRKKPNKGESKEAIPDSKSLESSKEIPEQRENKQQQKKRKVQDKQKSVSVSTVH

B1: B1: murine anti-RSPO3 mAb, IgG1; VH SEQ ID NO: 10, VL SEQ ID NO: 12 (antibody, V domains shown)
VH: QIQLQESGPGLVKPSQSLSLTCSVTGYSITSGYYWNWIRQFPGNKLEWMGYISYDGTNNYNPSLKDRISITRDTSMNQFFLKLNSVTTEDTATYYCSVLLIQYFNIWGAGTTVTVSS
VL: DIQMTQSPASLSASVGETVTITCRTSESVNNFLAWFHQKQGKSPQLLVYHAKTLADGVSSRFSGSGSGTQYSLKINSLQPEDFGNYYCQHFWSIPWTFGGGTKLEIKR
modifications: Heavy chain variable region; Light chain variable region
B2: A4: murine anti-RSPO3 mAb, IgG1; VH SEQ ID NO: 2, VL SEQ ID NO: 4 (antibody, V domains shown)
VH: QVQLQESGAELAKPGASVKMSCKASGHTLTYYWMHWVKQRPGQGLEWIGYIDPSTGYSEYNQRFEGKATLTADKSSGTVYMQLSSLTSEDSAVYYCARNGPFAYWGQGTLVTVSA
VL: DNVLTQSPAIMSASPGEKVTMTCSASSSVNYMYWYQQKPGSSPRLLIYDTSKLASGVPVRFSGSGSGTSYSLTISRMEAEDAATYYCQQWSSSPLTFGVGAKLEIKR
modifications: heavy chain variable region; Light chain variable region
B3: A6: murine anti-RSPO3 mAb, IgG2a; VH SEQ ID NO: 6, VL SEQ ID NO: 8 (antibody, V domains shown)
VH: QVQLQQSGAEIVRSGASVKLSCTASGFSITEYYIHWVKQRPDQGLEWIGMIDPENGDTDYAPKFQGKATMTADTSSNTVNLQLSSLTSEDTAVYYCHGPGPLEYWGQGTTLTVSS
VL: DIVMTQSPLSLPVSLGDQASISCRSSQSIVHSNGNTYLEWYLQKPGQSPNLLIYRVSNRFSGVPDRFNGSGSGTDFTLKISRVEPEDLGVYSCFQASHVPYTFGGGTKLEIKR
modifications: Heavy chain variable region; Light chain variable region

Key:
[1] = tested on: human SNU-1411 colon xenograft tumor; test: SNU-1411 colon xenograft tumor carrying PTPRK(e13)-RSPO3(e2) fusion transcript; format: in vivo, mice
Description: FIG. 15 is a set of graphs showing anti-tumor efficacy of in human SNU-1411 colon xenograft tumor carrying PTPRK(e13)-RSPO3(e2) fusion transcript. Tumor cells were injected into the mice and treatments were initiated when the tumors reaches 200 mm^3. Antibodies were given at 25 mg/kg once every other week (Q2W) and paclitaxel at 20 mg/kg once every week (Q1W). Both antibodies and […] were administered by intravenous injection. Paclitaxel was given from day 1 to day 32 and combination groups from day 1 to day 46. Both antibodies and paclitaxel were administered by intravenous injection. For each treatment cycle, antibodies were given on day 1 and paclitaxel on day 3. Tumor and body weight measurements were taken on the indicated days. Mean±SEM. *: p<0.05 vs. control mAb by one-way ANOVA followed by Tukey's post-test comparison.
To determine the effect of antibodies on SNU-1411 xenograft tumor, tumor-bearing animals were randomized and treatment began when mean tumor volumes reached approximately 150-200 mm^3. Antibodies were given once every other week (Q2W) and paclitaxel was administered once a week (Q1W). Both antibody and paclitaxel were administered intravenously. Tumor growth was measured twice a week by an electronic caliper. Tumor volumes were calculated with the formula (L×W^2)/2, where L was the longest and W was the shortest axis of the tumor. Animal weights were recorded once a week. Mice were examined frequently for overt signs of any adverse drug-related side effects. At the end of the study, all the mice were euthanized.

RSPO1, 2, 3, and 4 = test: Antigen-binding ELISA, selectivity among RSPO1-4
Excerpt: FIG. 3 is a set of graphs showing Anti-RSPO3 hybridoma antibodies reactivity measured by ELISA. These hybridoma antibodies were reacted with RSPO1-4 antigen immunoblots, which reflect with the RSPO3 antigen. (A) A1, A2, A4, A5, A6, and A9 clones; and (B) B1, B3, B4, B8, and B9 clones.
To assess the RSPO-binding capability of antibodies, purified antibodies were reacted with RSPO1, 2, 3, and 4 on immunoblots. To perform antigen-binding ELISA assay, 96-well high binding polystyrene plates (Corning) were coated with 2 μg/ml of recombinant RSPO3 preparation in the capture buffer by overnight incubation at 4° C. Coated plates were washed twice with PBS supplemented with 0.05% Tween 20 (PBST). The plates were blocked with PBST—10% BSA and assayed with ELISA standard protocol for 1 h at room temperature.

[2] = tested on: RSPO3-Wnt signaling (hRSPO3), MDA-MB436 TCF/LEF-Luc cells; test: TCF/LEF-Luc WNT reporter assay in MDA-MB436 cells stimulated by Wnt3a plus human RSPO3; format: cell-based; conditions: MDA-MB436 reporter cell line
Description: FIG. 4 is a set of graphs showing RSPO3 Abs targeting the canonical Wnt signaling and in vitro testing for inhibition of β-catenin activity. (A) A1, A2, A4, A5, A6, and A9 clones; (B) B1, B3, B4, B8, and B9 clones; and (C) Dose-response effect of elevated A4 and A6 clones on RSPO-Wnt signaling. MDA-MB436 TCF/LEF-Luc cells were incubated with a combination of Wnt3a (20 ng/mL) and RSPO3 (50 ng/mL) in the presence of 20 μg/mL anti-RSPO3 antibodies clone A1, A2, A4, A5, A6, A9 or 131R002. As controls, cells were incubated with a combination of Wnt3a and RSPO3, Wnt3a only, RSPO3 only, or with no addition. The cells were incubated for 16 hours and the luciferase activity assay was performed using One-Glo Luciferase Assay System.
FIG. 6 is a set of graph showing that anti-RSPO3 Ab inhibits WNT reporter activity stimulated by combination of Wnt3a and RSPO3. […] The cells were incubated for 16 hours. The luciferase activity assay was performed using One-Glo Luciferase Assay System.
Wnt signaling leads to β-catenin/TCF dependent transcriptional responses. MDA-MB436-TCF/LEF-Luc cells, a gift from Dr. Kelvin Kun-Chih Tsai, were employed to monitor the activity of Wnt signal transduction pathways. See, e.g., Wang et al. (2013). Gastroenterology (145): 1110-1120. In brief, MDA-MB436-TCF/LEF-Luc cells were seeded in black flat bottom 96 well culture plates (Costar) in RSPO Medium supplemented with 10% FBS and incubated overnight at 37° C., 5% CO2. 24 hours after incubation, cells were treated with anti-RSPO3 ab, 20 ng/ml WNT3a (R&D system) and RSPO ligands (Peprotech Systems) where appropriate and further incubated for 16 hours. Luciferase activity was measured using Bright-Glo Luciferase Assay System (Promega).

RSPO3 = target: T1, RSPO3; test: Octet (ForteBio) kinetic binding to biotinylated RSPO3; conditions: 30° C.
Description: The streptavidin-coated sensors were coated with 10 μg/ml of biotinylated RSPO3 as described in the handbook of ForteBio. Antibody concentrations were in the range of 0.75 and 93.8 nM. Quantitative kinetic binding analysis was performed with pH-adjusted PBS with 0.5% BSA. All steps were run at 30° C. with a continuous shaking speed at 1000 rpm.
To assess the RSPO3-binding affinities of the antibodies, kinetics assays were performed by the Octetsystems. The purified monoclonal antibodies (mAbs) from batch-A clones (A1, A4, A6, A9), along with the reference Ab-131R002, were examined for binding with RSPO-3.

[3] = tested on: hRSPO3 overlapping linear peptides; test: PepSet ELISA epitope mapping with linear 10-mer peptides of RSPO3; format: binding, human; conditions: antibody 10 μg/ml
Excerpt: FIG. 8 is a set of graphs showing mapping of the α-RSPO3 Ab epitopes on RSPO3 protein by Pep-set. These histograms represent the ability of each 10-mer oligopeptide to bind the RSPO3 Abs 131R010(A), 131R002 (B), and hybridoma A6 (C) as indicated in the figure. QNASRGRRQR (SEQ ID NO: 74); ASRGRRQRRM (SEQ ID NO: 75); RGRRQRRMHP (SEQ ID NO: 84); RRQRRMHPNV (SEQ ID NO: 76); CLSCKPRLFF (SEQ ID NO: 77); SCKPRLFFAL (SEQ ID NO: 78); ERGKKGRERK (SEQ ID NO: 79); GKKGRERKRK (SEQ ID NO: 80); KGRERKRKKP (SEQ ID NO: 81); RERKRKKPNK (SEQ ID NO: 82); RENKQQQKKR (SEQ ID NO: 83).
ELISA for PepSet library was employed to determine α-RSPO3 hB1 antibodies and RSPO3 binding epitope. […] The colorimetric reaction were then stop by 2N HCL and the optical density at 450 nm of each well were determined immediately.
To identify the binding epitopes of α-RSPO3 Abs, an overlapping peptide library (10-mer for each peptide, offset: 2 amino acid residues, total number of peptides to cover the mature hRSPO3:122) derived from hRSPO3 amino sequences was prepared by Mimotope, Inc. The binding of α-RSPO3 mAbs to the overlapping peptides derived from hRSPO3 was measured. […] According to the epitope mapping results using linear peptides (FIG. 8 and Table 6), it was concluded that hB1 likely binds to a conformationlly-determined epitope on huRSPO3.

Row | Molecule | Tumor volume on day 32 ([1]; antibodies 25 mg/kg Q2W, paclitaxel 20 mg/kg Q1W, i.v.) | Tumor volume on day 18 ([1]; antibodies 25 mg/kg Q2W, paclitaxel 20 mg/kg Q1W, i.v., mean±SEM) | Tumor volume on day 32 ([1]; antibodies 25 mg/kg Q2W, paclitaxel 20 mg/kg Q1W, i.v., listed as paclitaxel) | Tumor volume reduction, % of Control mAb ([1]; day 18) | selectivity in binding among RSPO1-4 in ELISA (RSPO1, 2, 3, and 4) | dose-dependent inhibitory effect in TCF/LEF-Luc reporter [2] | RMax (RSPO3) | kdis (RSPO3) | kon (RSPO3) | Signal (binding to linear RSPO3 peptides) [3]
1 | CC(=O)O[C@H]1C(=O)[C@@]2(C)[C@H]([C@H](OC(=O)c3ccccc3)[C@]3(O)C[C@H](OC(=O)[C@H](O)[C@@H](NC(=O)c4ccccc4)c4ccccc4)C(C)=C1C3(C)C)[C@]1(OC(C)=O)CO[C@@H]1C[C@@H]2O [Paclitaxel, reference compound] | 949 ± 105 mm^3 | 329 ± 59 mm^3 | 950 mm^3 | 69% and 69 ± 6* % | – | – | – | – | – | –
2 | B1 | – | – | – | – | only reacted with RSPO3 | significantly inhibitory effect in a dose-dependent manner | – | – | – | –
3 | B2 | – | – | – | – | only reacted with RSPO3 | significantly inhibitory effect in a dose-dependent manner | 0.3588 | 0.000884 s⁻¹ | 32700 M⁻¹ s⁻¹ | neither the A4 nor the hB1 mAbs showed detectable binding signals
4 | B3 | – | – | – | – | only reacted with RSPO3 | significantly inhibitory effect in a dose-dependent manner | 0.2151 | 0.0025 s⁻¹ | 241000 M⁻¹ s⁻¹ | –
